# From the Immune Epitope Database (IEDB)
# pKd: −log10 of the molar value.
# Tests used:
# Assay in all cases: IEDB peptide-MHC binding, purified MHC/competitive/radioactivity; filed as Kd, often an IC50 or EC50 that approximates it; ≥ and ≤ were set here for values at or beyond the usual limits of such assays
# HLA-A*11:01 = target: HLA-A*11:01
# HLA-A*03:01 = target: HLA-A*03:01
# HLA-A*68:01 = target: HLA-A*68:01
# HLA-A*33:01 = target: HLA-A*33:01
# HLA-A*31:01 = target: HLA-A*31:01
# [1] = source organism: Dengue virus 4 Philippines/H241/1956
# [2] = source organism: SARS coronavirus Tor2
# [3] = source organism: Vaccinia virus WR
# [4] = source organism: Lassa virus Josiah
# [5] = source organism: Mammarenavirus brazilense
# [6] = source organism: Dengue virus 2 Peru/IQT2913/1996
# [7] = source organism: Dengue virus 2 Jamaica/1409/1983
# [8] = source organism: Lymphocytic choriomeningitis virus (strain Armstrong)
# [9] = source organism: Triticum aestivum
# [10] = source organism: Vaccinia virus Copenhagen
# [11] = source organism: Vaccinia virus LC16M8
Sequence,pKd (HLA-A*33:01; [3]),pKd (HLA-A*11:01; [3]),pKd (HLA-A*03:01; [3]),pKd (HLA-A*31:01; [3]),pKd (HLA-A*68:01; [3]),other results
AIKILTGFRK,,,,,,pKd (HLA-A*11:01; [1]): 5.75; pKd (HLA-A*03:01; [1]): 6.99
ISIMIEEVMR,,,,,,pKd (HLA-A*68:01; source organism: Dengue virus 1 Singapore/S275/1990): 7.08
SQMLLIVLK,,,,,,pKd (HLA-A*33:01; [2]): 5.30; pKd (HLA-A*11:01; [2]): 9.30; pKd (HLA-A*03:01; [2]): 6.69; pKd (HLA-A*31:01; [2]): 6.46; pKd (HLA-A*68:01; [2]): 6.51
NTLSERISSK,6.39,9.13,7.31,5.85,8.02,
AITPTIEDDK,≤ 4.37,6.94,6.31,≤ 4.32,5.18,
TLTNTSIINH,,,,,,pKd (HLA-A*33:01; [4]): ≤ 4.15; pKd (HLA-A*11:01; [4]): 4.81; pKd (HLA-A*03:01; [4]): 5.29; pKd (HLA-A*31:01; [4]): ≤ 4.22; pKd (HLA-A*68:01; [4]): 4.88
KCSDHYICLK,,,,,,pKd (HLA-A*33:01; [5]): 5.09; pKd (HLA-A*11:01; [5]): 5.72; pKd (HLA-A*03:01; [5]): 6.56; pKd (HLA-A*31:01; [5]): 6.32; pKd (HLA-A*68:01; [5]): ≤ 4.15
FVCKHSMVDR,,,,,,pKd (HLA-A*33:01; [6]): 6.91; pKd (HLA-A*31:01; [6]): 6.93; pKd (HLA-A*68:01; [6]): 5.98
MSLSEQLRK,,,,,,pKd (HLA-A*33:01; [2]): 5.33; pKd (HLA-A*11:01; [2]): 8.40; pKd (HLA-A*03:01; [2]): 8.08; pKd (HLA-A*31:01; [2]): 6.74; pKd (HLA-A*68:01; [2]): 6.77
MIIKHIYEQY,≤ 4.15,5.24,≤ 4.15,≤ 4.15,6.85,
NTRQLKLLEY,4.97,6.82,6.01,5.01,5.80,
ITVNPIVTEK,,,,,,pKd (HLA-A*11:01; [7]): 7.16; pKd (HLA-A*03:01; [7]): 7.62; pKd (HLA-A*68:01; [7]): 6.81
TTKDYFSFKK,5.88,8.90,7.50,7.02,9.25,
TQVLKTMSLY,,,,,,pKd (HLA-A*33:01; [2]): ≤ 4.56; pKd (HLA-A*11:01; [2]): 5.57; pKd (HLA-A*03:01; [2]): 6.73; pKd (HLA-A*31:01; [2]): 5.03; pKd (HLA-A*68:01; [2]): 4.99
VIGLTTHCTK,≤ 4.45,7.34,7.81,6.12,7.14,
NYSKFWYLEH,,,,,,pKd (HLA-A*33:01; [8]): 6.52; pKd (HLA-A*11:01; [8]): ≤ 4.16; pKd (HLA-A*03:01; [8]): ≤ 4.15; pKd (HLA-A*31:01; [8]): 5.23; pKd (HLA-A*68:01; [8]): ≤ 4.15
YFTFGDTALY,≤ 4.34,5.19,5.05,≤ 4.32,7.30,
LSRLRYNLCK,5.58,6.15,7.03,6.69,5.45,
GILKKLSSIK,≤ 4.15,6.43,7.86,5.26,≤ 4.70,

Sequence,pKd (HLA-A*33:01; [3]),pKd (HLA-A*11:01; [3]),pKd (HLA-A*03:01; [3]),pKd (HLA-A*31:01; [3]),pKd (HLA-A*68:01; [3]),other results
QLDEKSSIK,≤ 4.25,6.29,6.69,5.37,4.85,
PQVGGLTSIK,,,,,,pKd (HLA-A*33:01; [2]): ≤ 4.15; pKd (HLA-A*11:01; [2]): 5.20; pKd (HLA-A*03:01; [2]): ≤ 5.00; pKd (HLA-A*31:01; [2]): ≤ 4.15; pKd (HLA-A*68:01; [2]): ≤ 4.43
RIMQRGLFGK,,,,,,pKd (HLA-A*11:01; [1]): 7.53; pKd (HLA-A*03:01; [1]): 8.27; pKd (HLA-A*31:01; [1]): 7.96
AALFMYYAKR,6.08,6.75,6.51,7.77,7.48,
SLSVETITEK,≤ 4.15,6.93,7.48,5.90,4.91,
RVDIYYNGNK,≤ 4.27,8.31,7.34,5.27,6.92,
ITNITTDSR,,,,,,pKd (HLA-A*68:01; source organism: Dengue virus 3 Martinique/1243/1999): 7.58
QQHNIVHGK,,,,,,pKd (HLA-A*33:01; [9]): ≤ 4.11; pKd (HLA-A*11:01; [9]): 6.04; pKd (HLA-A*03:01; [9]): 4.90; pKd (HLA-A*31:01; [9]): 5.63; pKd (HLA-A*68:01; [9]): 6.14
WFLKSGAVVK,5.36,6.94,7.96,5.12,6.72,
GVIADYNYK,,,,,,pKd (HLA-A*33:01; [2]): 5.31; pKd (HLA-A*11:01; [2]): 8.22; pKd (HLA-A*03:01; [2]): 7.62; pKd (HLA-A*31:01; [2]): 6.90; pKd (HLA-A*68:01; [2]): 7.14
VVPDYGTYK,,,,,,pKd (HLA-A*33:01; [2]): 4.76; pKd (HLA-A*11:01; [2]): 7.07; pKd (HLA-A*03:01; [2]): 6.51; pKd (HLA-A*31:01; [2]): 5.57; pKd (HLA-A*68:01; [2]): 6.31
ITPDDGLGLR,5.00,4.79,≤ 4.15,4.94,7.16,
KSEFNTYKR,,,,,,pKd (HLA-A*31:01; source organism: Dengue virus 1 Brazil/97-11/1997): 5.87
IVNNQESNK,,,,,,pKd (HLA-A*33:01; [10]): ≤ 4.11; pKd (HLA-A*11:01; [10]): 6.83; pKd (HLA-A*03:01; [10]): 6.88; pKd (HLA-A*31:01; [10]): 5.93; pKd (HLA-A*68:01; [10]): 6.95
LFASADNHPK,,,,,,pKd (HLA-A*33:01; [11]): 5.01; pKd (HLA-A*11:01; [11]): 7.07; pKd (HLA-A*03:01; [11]): 6.40; pKd (HLA-A*31:01; [11]): 5.03; pKd (HLA-A*68:01; [11]): 6.58
YLRNYMVIK,6.03,6.05,8.87,7.46,5.78,
LTIKDSSNK,≤ 4.11,7.83,6.08,≤ 4.46,8.04,
NTPLHIVCSK,5.14,6.83,7.49,6.63,7.97,
STPIVVQMTK,,,,,,pKd (HLA-A*11:01; [2]): 7.85
